According to patent publication US20180346555A1 (Regeneron, published 2018):

T1: natural Bet v 1 (Betula verrucosa (Betula pendula), UniProt P15494 2-160)
T1 construct: Bought natural protein; also called nBet v 1
T1 chain: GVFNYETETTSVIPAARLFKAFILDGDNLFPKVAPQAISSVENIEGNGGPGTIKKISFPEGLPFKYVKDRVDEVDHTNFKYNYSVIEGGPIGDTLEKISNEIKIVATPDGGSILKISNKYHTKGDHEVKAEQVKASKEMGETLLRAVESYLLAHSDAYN

T2: Hazel (Cor A 1, MyBiosource, Cat# MBS5304600) (Hazel, UniProt Q08407 2-160, limits assumed)
T2 construct: Bought reagent
T2 sequence (looked up): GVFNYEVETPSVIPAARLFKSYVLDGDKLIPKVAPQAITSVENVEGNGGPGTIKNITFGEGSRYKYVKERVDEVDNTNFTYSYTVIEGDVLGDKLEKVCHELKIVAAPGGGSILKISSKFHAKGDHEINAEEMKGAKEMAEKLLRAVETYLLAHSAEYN


Target: T1, natural Bet v 1
Assay: SPR Biacore 4000, mAb captured on anti-human Fc, 25C;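 also: purified anti-Bet v 1 mAbs probed with natural Bet v 1 in HBS-ET buffer (HEPES, NaCl, EDTA, Tween-20) at pH 7.4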
Procedure: (§1) Equilibrium dissociation constants (KD) for natural Bet v 1 binding to purified anti-Bet v 1 monoclonal antibodies were determined using a real-time surface plasmon resonance biosensor (SPR-Biacore) on a Biacore 4000 instrument. All binding studies were performed in 10 mM HEPES, 150 mM NaCl, 3 mM EDTA, and 0.05% v/v surfactant Tween-20, pH 7.4 (HBS-ET) running buffer at 25° C. and 37° C. […] Association (kₐ) and dissociation (kd) rate constants were determined by fitting the real-time binding sensorgrams to a 1:1 binding model with mass transport limitation using Scrubber 2.0c curve-fitting software. Binding dissociation equilibrium constants (KD) and dissociative half-lives (t½) were calculated from the kinetic rate constants as:

100 nM natural Bet v 1 Bound (RU) | Kd | koff | kon | t½ | Binder
69 RU | 1.22 nM | 0.000149 s⁻¹ | 122000 M⁻¹ s⁻¹ | 78 min | H4H17045P2 (antibody, human IgG4, V domains shown) VH: EVQLVESGGGLVQPGVSLRLSCVASGFTFSNYDITWIRQIPGKGLEWVSRISGSGGSTYFADSVKGRFIISRDNSKNTVYMQMNSLRAEDSAVYYCARRDSVLFSMNSWLDPWGQGTLVTVSS VL: not shown
58 RU | 3.56 nM | 0.000402 s⁻¹ | 113000 M⁻¹ s⁻¹ | 29 min | H4H17067P2 (antibody, human IgG4, V domains shown) VH: EVQLVQSGAEVKKPGESLKISCSGSGYRFTNYWIAWVRQMPGKGLEWMGLIHPDDSDIRYSPSFQGQVTFSVDKSINTAYLQWSSLKASDTAMYYCTRQDGILWSHNAWFDPWGQGTLVTVSS VL: not shown

Target: T1, natural Bet v 1
Assay: SPR Biacore 4000, mAb captured on anti-human Fc, 37C;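 also: kinetic rate constants from SPR sensorgrams fitted to a 1:1 model with mass transport limitation, HBS-ET buffer pH 7.4, KD and t½ derived from the rate constants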
Procedure: as §1

100 nM natural Bet v 1 Bound (RU) | Kd | koff | kon | t½ | Binder
90 RU | 1.86 nM | 0.000441 s⁻¹ | 237000 M⁻¹ s⁻¹ | 26 min | H4H17045P2 (antibody, human IgG4, V domains shown) VH: EVQLVESGGGLVQPGVSLRLSCVASGFTFSNYDITWIRQIPGKGLEWVSRISGSGGSTYFADSVKGRFIISRDNSKNTVYMQMNSLRAEDSAVYYCARRDSVLFSMNSWLDPWGQGTLVTVSS VL: not shown
80 RU | 5.48 nM | 0.00147 s⁻¹ | 268000 M⁻¹ s⁻¹ | 7.9 min | H4H17067P2 (antibody, human IgG4, V domains shown) VH: EVQLVQSGAEVKKPGESLKISCSGSGYRFTNYWIAWVRQMPGKGLEWMGLIHPDDSDIRYSPSFQGQVTFSVDKSINTAYLQWSSLKASDTAMYYCTRQDGILWSHNAWFDPWGQGTLVTVSS VL: not shown

Target: T2, Hazel (Cor A 1, MyBiosource, Cat# …)
Assay: SPR Biacore 4000, mAb captured by anti-human Fc, 25 C;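 also: allergen analyte binding to captured, purified anti-Bet v 1 monoclonal antibodies, SPR in HEPES-buffered saline running buffer with EDTA and Tween-20 at pH 7.4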
Procedure: Equilibrium dissociation constants (KD) for different related allergens binding to purified anti-Bet v 1 monoclonal antibodies were determined using a real-time surface plasmon resonance biosensor (SPR-Biacore) on a Biacore 4000 instrument. All binding studies were performed in 10 mM HEPES, 150 mM NaCl, 3 mM EDTA, and 0.05% v/v surfactant Tween-20, pH 7.4 (HBS-ET) running buffer at 25° C. […] Association (kₐ) and dissociation (kd) rate constants were determined by fitting the real-time binding sensorgrams to a 1:1 binding model with mass transport limitation using Scrubber 2.0c curve-fitting software. Binding dissociation equilibrium constants (KD) and dissociative half-lives (t½) were calculated from the kinetic rate constants as:

100 nM Analyte Bound (RU) | binding result | Binder
0 RU | no binding (tested: 100 nM) | H4H17031P (antibody, human IgG4, V domains shown, Fully human antibody with human IgG4 Fc (H4H prefix)) VH: QVQLQQWGAGLLKPSETLSLTCVVYGESFGNYHWNWIRQSPGKRLEWIGEINQNGHTNYNPSLKSRVTISVDTSKIQFSLRLNSVTAADTAVYFCARGHNYVNSYFGLDVWGQGTTVTVSS VL: EIVMTQSPATLSVSPGERATLSCRTSQSVSISLAWYQRKPGQAPRLLIFGSSTRATGVPARFSGSGSGTEFTLTISSLQSEDFAVYYCQQYNNWPYTFGQGTKLEIK
0 RU | no binding (tested: 100 nM) | H4H17027P (antibody, human IgG4, V domains shown, Fully human antibody with human IgG4 Fc (H4H prefix)) VH: EVQLVESGGGLVQPGGSLRLSCAASGFTFRNYAMHWVRQAPGEGLEWVAAIYRNSDSIDYADSVKGRFTISRDNAKNSLYLQMNSLKTEDTALYYCAKDEGFLEYFDSWGQGTLVTVSS VL: EIVLTQSPGTLSLSPGERASLSCRASQSVSSSFLAWYQQKPGQAPRLLIYGVSSRFIGIPDRFSGGGSGTDFTLTITRLEPEDFAVYYCQQYGRSPWTFGQGTKVEIK
0 RU | no binding (tested: 100 nM) | H4H16943P (antibody, human IgG4, V domains shown, Fully human antibody with human IgG4 Fc (H4H prefix)) VH: EVQLVESGGGLVQPGGSLRLSCTASGFMSSMYWMSWVRQAPGKGLEWVSNIKQDGTEKNYVESVKGRFTISRDNAKNSLYLQINSLRGEDTAVYYCARDLYSSSSGYYYYGLDVWGQGTTVTVSS VL: DIVMTQSPLSLPVTPGEPASISCRSSQSLLHSNKYNYLDWYLQKPGQSPQLLIYLSSNRASGVPDRFSGSGSGTEFTLKISRVEAEDVGIYYCMQALHTPLTFGGGTKVEIK
0 RU | no binding (tested: 100 nM) | H4H16991P (antibody, human IgG4, V domains shown, Fully human antibody with human IgG4 Fc (H4H prefix)) VH: QVQLVQSGAEVRKPGASVKVSCKASGYTFTGYYLHWVRQAPGQGLEWMGLINPNTGGTNFAQKFQGRVTMTRDSSISAAYMELSRLRSDDTAVYYCARQHWNRYFDNWGQGTLVTVSS VL: DIQMTQSPSTLSASVGDRVTITCRASQSVGNWLAWYQQKPGKAPKLLIQEASSIESGVPSRFSGSGSGTEFTLIVSSLQPDDFATYYCQQYNSYSWTFGHGTKVEIK
0 RU | no binding (tested: 100 nM) | H4H16960P (antibody, human IgG4, V domains shown, Fully human antibody with human IgG4 Fc (H4H prefix)) VH: QLQLQESGPGLVRPSETLSLTCTVSGGSISSSNYWWGWIRQPPGKGLEWIGSIYYSGITYYNPSLKSRVTISADTSKDQFSLKLRSVTAADTAVYYCAKLEWLRLDFWGQGTTVTVSS VL: DIQMTQSPSSVSASVGDRVTITCRASQGISSWLVWYQQKPGKVPKLLIYAASSLQSGVPLRFSGSGSGTDFTLTISSLQPEDFATYYCQQAKSFPLTFGQGTRLEIK
0 RU | no binding (tested: 100 nM) | H4H16987P (antibody, human IgG4 S228P, kappa, V domains shown, human IgG4 Fc; also called MAB4) VH: EVQLVESGGGLVQPGGSLRLSCAASGFTVSSNSMSWVRQAPGEGLEWVSVIFSGGITYYSDSVKGRFTISRHNSKNTLYLQMNSLRTEDTAVYYCARHSNWNFDAFDIWGQGTMVTVSS VL: DIQMTQSPSSLSASVGDRVTITCRASQSFDTYLNWYQQKPGKAPNLLIYATSSLQSGVPSRFSGSGSGTDFTLTISSLQPEDFGTYYCQQSYSIPYTFGQGTKLEIKR
0 RU | no binding (tested: 100 nM) | H4H16979P (antibody, human IgG4, V domains shown, Fully human antibody with human IgG4 Fc (H4H prefix)) VH: QVQLVQSGAEVKKPGASVKVSCKASGYTFIAYYLHWVRQAPGQGLEWMGLLNPYTGGSYYTQKFQGRVTMTRDTSIDTAYMELNSLRSDDTAIYYCARDKRSYYIPYAFEIWGQGTMVTVSS VL: not shown
0 RU | no binding (tested: 100 nM) | H4H16950P (antibody, human IgG4, V domains shown, Fully human antibody with human IgG4 Fc (H4H prefix)) VH: QVQLVQSGAEVKKPGASVKVSCKTSGYTFTNYGITWVRQAPGQGLEWMGWISAYNGNTNYAQNVQGRVTMTTDTSTSTAYMEVRSLRSDDTAVYYCARRSSMLHFQHWGQGTLVTVSS VL: DIVMTQSPDSLAVSLGERATINCKSSQHVLYDSSNENYLAWFQQKPGQPPKLLIYWASTRESGVPDRFSGSGSGTDFTLTISSLQAEDVAVYYCQQYSSAPYTFGQGTKLEIK
0 RU | no binding (tested: 100 nM) | H4H17001P (antibody, human IgG4, V domains shown, Fully human antibody with human IgG4 Fc (H4H prefix)) VH: QVQLVESGGGLVKPGGSLRLSCAASGFTFSDYYMNWIRQAPGKGLEWISLISSSGSAIYYSDSVKGRFTISRDNARKSLYLQVNSLRAEDTAVYYCARDRGEWALGAYYYGLDVWGQGTTVTVSS VL: DIVMTQSPLSLPVTPGEPASISCRSSQSLLHSDGYNYLDWYLQKSGQSPQLLIYLGSNRASGVPDRFSGSGSGTDFTLKISRMEAEDVGVYYCMQALQTPYTFGQGTKLEIK
-1 RU |  | H4H16946P (antibody, human IgG4, V domains shown, Fully human antibody with human IgG4 Fc (H4H prefix)) VH: EVQLVESGGGLVQPGGSLRLSCVASGFTFSNYDMNWVRQAPGEGLEWISYISYSDHNIYYIDSVKGRFTISRDNAKNSLYLQMNSLRAEDTAIYYCAREALASSSFDYWGQGTLVTVSS VL: EIVMTQSPATLSVSPGERVTLSCRASQSVSGNLAWYQQKPGQAPRLLIYSASTGATGVPARFSGSGSGTEFTLTISSLQSEDFALYYCQQYNKWPRTIGQGTKVEIK
0 RU | no binding (tested: 100 nM) | H4H16967P (antibody, human IgG4, V domains shown, Fully human antibody with human IgG4 Fc (H4H prefix)) VH: QVQLVESGGGVVQPGRSLRLSCAASGFTFSSYGMHWFRQAPGKGLEWVGVIWSDGSDKKYADSVKGRFTISRDNSKNTLYLLMNSLRDDDTAVYHCAREGGFLYSSSSHFDYWGQGTLVTVSS VL: AIQMTQSPSSLSASVGDRVTITCRTSQGIRNDLGWYQQKPGKAPKLLIFAASSLQSGVPSRFSGSGSGTDFTLTISSLQPEDFAIYYCLQDYKYPFTFGGGTKVEIK
0 RU | no binding (tested: 100 nM) | H4H17033P (antibody, human IgG4, V domains shown, Fully human antibody with human IgG4 Fc (H4H prefix)) VH: QVQLVQSGAEVKKPGASVKVSCKASGYTFAAHYMHWVRQAPGQGLEWMGWINTYTGGTNYGQKFQGRVTMTRDTSITTAYMELSRLRSDDTAVYYCARDRRNWNFVFEYWGQGTLVTVSS VL: DIQMTQSPSSLSASVGDRVTISCRASQNIKNYLNWYQQKPGKAPKLLIYEASNLQSGAPSRFSGSGSGTDFTLTISSLEPEDFATYYCQQSFSIPWTFGQGTKVEIK
0 RU | no binding (tested: 100 nM) | H4H17028P (antibody, human IgG4, V domains shown, Fully human antibody with human IgG4 Fc (H4H prefix)) VH: QVQLVESGGGVVQPGRSLRLSCAASGFTFSRYAIHWVRQAPGKGLEWVAVISYDGDDKYYGDSVKGRFTISRDNSKTMVYLHMNSLRTEDTAVYYCAKDGYSLYGKDYFDYWGQGTLVTVSS VL: EIVLTQSPGTLPLSPGERATLSCRASQSITNSYLAWYQQKPDQAPRLLIYGASSRATGIPDRFSGSESGTDFTLTISRLEPEDFAVYYCQQYVRSPWTFGQGTKVEIK
1 RU | no binding (tested: 100 nM) | H4H17015P (antibody, human IgG4, V domains shown, Fully human antibody with human IgG4 Fc (H4H prefix)) VH: QVQLQESGPGLVKPSQTLSLTCTVSGGSISSADHYWSWIRQQPGKGLEWIGYISYRGTTYYNPTLESRVSISVDTFKNQFSLMLHSVTVADTAVYYCAKVLQGLVRFRDYGFDVWGQGTTVTVSS VL: DIQLTQSPPFLSASVGDRVTITCWASQDISSYLAWYQQNPGKSPKLLIYDAFTLHTGVPSRFSGSGSGTEFTLTISSLQPEDFATFYCQHLYSFPFTFGPGTKVDIK
0 RU | no binding (tested: 100 nM) | H4H16971P (antibody, human IgG4, V domains shown, Fully human antibody with human IgG4 Fc (H4H prefix)) VH: QVQLVESGGGVVQPGRSLRLSCAASGFTFSSYGLHWVRQAPGKGLEWVAVISDDGSYKFYADSMKGRFTISRDNSKNTLYLQMNSLRAEDTAVYYCAKDRGRSGWYYFDYWGQGTLVTVSS VL: not shown
0 RU | no binding (tested: 100 nM) | H4H16992P (antibody, human IgG4 S228P, kappa, V domains shown, human IgG4 Fc; also called REGN5713; MAB1) VH: QVQLQESGPGLVKPSETLSLTCSVSGGSITNYFWTWIRQSPGKGLEWIGYIYYSGGTNYNPSLKSRVTISIDTSKNQFSLNMNSVTAADTAVYYCAGSYYYGVDVWGQGTTVTVSS VL: EIVLTQSPATLSLSPGERATLSCRASQSIKSFLAWYRQKPGQAPRLLIYDASNRPTGIPARFSGSGSGTDFTLTINSLESEDFAVYFCQQRNNWPFTFGPGTKVDIKR
